For 14 proteins, plate clearing results are on record in the PETadex activity labels.

Substrate in the data set: BHET
The conditions noted are these: 120 h.

B1: unnamed (protein)
chain: MKTTTIIKSTLCAFTLTFSLSAFSGGGGGGGGGNNGNLPPPDTCNTNCGYEIGPNPTLGFLQASQGPLPVSSTNVSSSVNGFGGGTIYYPSNISDEMAAISIAPGFTNTQSAVAWWGPILASHGFVVITINTNSRFDQPESRSRQLDSALSYLISEGDRGSSPISGLVDENRLATMGFSMGGGGSLRSASRNRLSAAVPLAPWSTGSNNFDDIGVPTLIMACENDTTARVNTHASPFYNAIPGSTDKAFMEINNGPHNCANGESSTNRSLLSTYGVSWMKRFLDKDRRYNQFLCGPNHEANSRISEYRDTCSYG
For the protein B1, the plate clearing entry is on record as “not clears the plate”.

B2: unnamed (protein)
chain: MERHNSRRRWGMGLGLLLLAASAHAQYQKGPDPTSASLNASSGPFSVATSSVSSLAAVGFGSGTIYYPTTAGSYAVLAICPGFTATESSIAWLGRRIATHGFVVITINTDSTLDQPPSRATQLMAALRHVTESSSATVRSRVDASRRGVAGHSMGGGGTLYAARDNPSLKAAVPLTAWSTTKTFSSMQVPTLVVGAENDSIASVNSHSIPFYNGLPGSLDKAYAELNGASHFAPNTTNTPIGRYSVAWVKRFMDEDTRYSPFLCGAPHQSYA
For the protein B2, the plate clearing result is reported as “not clears the plate”.

B3: unnamed (protein)
chain: MQKIRSIGRAGRARWGRAALTAVALAAALSAAQAQTVVGPDPTAAALEAARGPFAVSTTTIKAPRGFRAGTVFFPASVTTPMAAVAVVPGFTARQSSINWLGPRLASWGFVVVTIDTNSTSDQPAARATQLMAALKQVVDESKVAGSPFFGKVDGARLGVMGHSMGGGGSLIAARNNPTLKAAIPMAPWNLGRNFSGVSVPTLVMACQNDAVAPVAQHASPFFESIPATVDKAFLEVRGGSHLCPTTASVANQPLLGKYSVAWMKRFMDNDTRFSAFLCDAPHQADLAGNKISAYRENCPY
For B3, the plate clearing result was “clears the plate (z > 3 vs empty vector)”.

B4: unnamed (protein)
chain: MIKDFLLSRVVIVAGTLIFSMPTLAEITVSETTVVIPKEALPVPTLSNCITDSAITADALSDTRDNGPFTVSTKRVPRQSANGFGGGTIHYPTNASGCGLLGGIAVVPGYVSYESSIKWWGPRLASWGFVVITINTNHISDNPDSRATQLNAALDHLLLDSTVANMVDRDRLGVIGWSMGGGGALRLATDRSTVRAIIAQTPYHDTSYPTMDTPALFIACENDRIAPNKKYTNVFYNNATGPKMKVEVSNGSHFCASHGFHEILLSKPGIAWMQRYINGDTRFDQFLCSSENYNSSPRISSYNYKNCL
Turning to B4, the plate clearing entry is listed as “not clears the plate”.

B5: unnamed (protein)
chain: MHTKNYRNDARTVPKRSSLAKSLLAGGILLFSAAANADIIFQEDFNSSLGQFTASGSVTTGTYGARMAAAYGSGDAFITSAPISTVGFTNISLTWTRTTSGLDSGESGIAMFSTNGSTWTTIESVQSASGVRTVALPAGAAGQSALRLRFEVDGSLSSETYTVDTIRLEGTGSGGGCEPNCEPPPTGNPYERGPAPTTSSLEASTGPFQVATTTVSSTTADGYGSGTIYHPTGVTGPFAAIAICPGYTATQTSISQWGPRLASHGFVVITINTNSTSDQPPSRATQLMAALDQLVTFSNTSGHAIFGKVDGTRRGVMGHSMGGGGSLIAARDNPSLKAAIPMAPWYSSSTNFSAIRTPTMIVACESDSIARVSSHALPFYNSIPSTTPKAFAERNNGSHNCPINNNDWWPTLNKYGVAWMKRFLDNDTRYSPWLCGAPHEAVVDGTTYSRYLSNCPY
Take B5: the plate clearing entry was “clears the plate (z > 3 vs empty vector)”.

B6: unnamed (protein)
chain: MPGYQGTQQNLQWLAPRLASWGFTVINLGTNTLTDDPDSRATQIRNAGTQLLSFSATAGNPIANKVRSVTASTGLGVSGHSMGGGGTMVVLRDDSRFTAGAPLAPYHPSGAFSGVTKPTFFLVCASDVAAPGNTYAKPWYNSMASAEKLYMSVPGDHLCPMTGYGDKAKQGKYLVSWFSRWLKGDTSYSQFLCTDSIRNVDKNNTSIVTEWMDTCPY
Consider B6, for which the plate clearing entry was “not clears the plate”.

B7: unnamed (protein)
chain: MRHRSISALVLGTAVVAGAAQAQINPFAKGPDPTPASIQATGPFAISMQTVPRAAGFGGATVYSPNDPGSYALVVLCPGFIETQSAISAVGQRLATHGFVVATIDTVTTIDFPASRGTQLIAALQTITALNTGPVAGKIDTTRLVVGGHSMGGGGTLEASRTNPAIKAGLPIAPFHFVKQFNTPVPQLITGGQVDAIAPVGQHAIPFFEMLPDATPKIYAELTGGNHFFVTQNPPNQPINKLLLAWTKRFADNDLRYEQFITATAVQAEVANGALSQTRREATPF
Consider B7, for which the plate clearing result was “not clears the plate”.

B8: unnamed (protein)
chain: MTTKRHRTATTPTRRARLALLAAATLLSFAAQAQVVIFQENFNSGLGQFTASGTVSTSSGGAVMQGCYNCTDGAITSKPISTVGFTNLKLSYDRTTTGLDSGEYGVAAYSVNGGAWTVIESIQSSSGRVTIALPAAAANQASLRLRFRVNASLSAETFTVDNVVLEGTPGGAPGPGGNPYQKGPDPTAAALEASAGPFTVATTTVSASSASGYGGGTIYYPTNVAGPFAAIAVVPGYTATQSSISWWGPRLASHGFVVITIDTNSTSDLPASRATQLMAALNQLKTFSATSGHAIYGKVDPNRLGVMGWSYGGGGTLIAARDNPTLKAAIPLAPKTSSGTDFSGITVPTLIVGCESDTTAPVSSWAIPFYNSIPASTKKAYLEINNGDHFCVTTSNSSADKAILGKYGVAWMKRFLDNDTRYSPFLCGAPHQADLSGNAAISEYRDNCPY
With B8, the plate clearing result is on record as “not clears the plate”.

B9: unnamed (protein)
chain: MAKFTGAAQFLKASMAIGAIVLSAAASAQTNPYQRGPAPTDSSLAADRGPLAYSSFTVSRPSGYRAGTVYYPTNAGGTVGAIAVVPGFTAYQSDINWWGPRLASWGFVVITIDTNSTLDQPSSRSRQQLAALDQVATLSRTSGSPIYNKVDTSRMGVMGWSMGGGGSLISTQNRPSLKASIPFAPWNGTSSFSSVTTPTFIIACQSDLIAPVASHANDFYNSLSRPPKMFLEIRGGSHYCANSSNGNKDVLGAKGVAWMKRY
For the protein B9, the plate clearing result is reported as “not clears the plate”.

B10: unnamed (protein)
chain: MERGNHRAKWAIGFGLLLLGAAAHSQTNPYQKGPDPTSATLNATSGSFAVATSTVSSLAANGFGGGTIYYPTQTGTYAVLAISPGFTATQSSIAWLGRRISTHGFVVITIDTNSTLDQPPSRATQLMAALRHVTDLSSSTVRSRVDASRRGVAGHSMGGGGTLIAARDNPSLKAAVPLTAWSTTKIFSTVQVPTLVVGAESDSVAPVSSHSIPFYNSLSNSLDKAYAELNNASHFAPNSTNTPIGRYSVAWVKRFMDNDTRYTPFLCGTPHTSYATSTVFSDYRSTCPY
Consider B10, for which the plate clearing entry is recorded as “not clears the plate”.

B11: unnamed (protein)
chain: MTPTTHDDIDSHPSRTPAMRRAWPAFIAGTLLSLGAQAQVAIFKEDFQGGIGQFTSAGAASVSNGRVVMKGCLTCADGSVTSKEISTVGFDALRLSYDRTIVGLDAGEYGEVAYAVDGGEWTMLWGRLDNRSGRGTIDLPAAAANQKSLRLRYRIHASDSAETFTLDNVLLEGTPRSVTHPNPYAKGPDPTASALEAKAGPFTYAATVVPSGKASGYGGGTLYHPDKEVGPFAAIVIVPGYTATQESVKWWGPLLASHGFVVMVIDTLDNRDLPGSRATQLMAAVSQVKGFNTTQGHAIQGKVDPARVGIMGWSFGGGGTLLAAQAHPELKAAIPMAPKTWGETLKTADIKVPTLIIGCQADTTAPVKDWAIPFHEGIPGSVRKAYLEIAQGGHGCVSAQFNKKAADLAMMGKYGVSWMKRFLDEDTRYSPYLCGAPHQADVNGKTVVSAYRENCPY
For the protein B11, the plate clearing result is recorded as “not clears the plate”.

B12: unnamed (protein)
chain: MQYASTPTLRHVAQFAKASVLAATVLLASVAHAQFEKGPNPTVSALERAGTFATRTTTVSSLSASGFGGGTIYYPTAAGSYGVIAISPGFTARQSSISWMGTRIASHGFVVITIDTNTTSDQPDSRARQLKAALDKVVSLSTGRTNVLYGKVDASRLAVAGHSMGGGGSLAAARDYPTLKAAVPLAPWHTTKSFSSVRVPTLIISGENDSVAGNSSHSIPFYNSLPSSTPKGYLELNAEDHFFPQDSGEYGLVGKYMISWFKRFVDSDTRYSPFLCGAEHQAQVRVTSRVSDSRTNCPY
For the protein B12, the plate clearing entry is “not clears the plate”.

B13: unnamed (protein)
chain: MPPHAARPGPAQNRRGRAMAVITPRRERSSLLSRALRFTAAAATALVTAVSLAAPAHAANPYERGPNPTDALLEARSGPFSVSEERASRFGADGFGGGTIYYPRENNTYGAVAISPGYTGTQASVAWLGERIASHGFVVITIDTNTTLDQPDSRARQLNAALDYMINDASSAVRSRIDSSRLAVMGHSMGGGGSLRLASQRPDLKAAIPLTPWHLNKNWSSVRVPTLIIGADLDTIAPVLTHARPFYNSLPTSISKAYLELDGATHFAPNIPNKIIGKYSVAWLKRFVDNDTRYTQFLCPGPRDGLFGEVEEYRSTCPF
Take B13: the plate clearing entry is given as “not clears the plate”.

B14: unnamed (protein)
chain: MISNRRAPARRAGAALTALALAVVLAACDIRGPAPTEQILEAPSGPFAVGSVAVPSSAGFGGGTIYYPSEAAGPFGIIAVTPGFLGNQTSIGTWGPRLASHGFVTITINTTGGFILPDQRSAEQRQALTYVVNQGNRSSSPIFGKVDGDRKGVAGHSMGGGGTLVSAREDPTIRAAVPFAPWYTSTNFSNVTVPTLIVACQSDGVAPVASHASPFYNSIPATTDKSYISVAGADHFCANSPTGGANDVGKYVVAFFKRFVDGDTRYDPWVCG
As for B14, the plate clearing entry was “not clears the plate”.
